Source: a protein production outcome set (Wang et al. 2014)

test: label from the status in PepcDB records

| Sequence | protein production |
| --- | --- |
| MKSTAEDLINGEISSVGVYLYNKLKNYVFEKESSEKTAIRKADFGKIIEEKTDLEEFPAVSKEDIKAICEILYNSKDIEIIIKQLYVFQSDINKSLDEIKEDFVSLFPKTINLENGRINLETGERISFLLKIFEVLDEGIQTALNRAVDEGSSGASNALSNRRHFDMKNKLANGFKEVKKLINESSRAVQEKKIPTEKLPSLFISYAREDDEPFVEKLYQGLKEKGFEIWWDRTAMKNRGRTFLQEIRDAIEDSDLLIAVIGPKAIESDSVRYEWEHALLFSKGVIPVLRMGDYNLLLPEMSKLHCPDFREKRPYEEALEELIRLLKEPIPSLGPIIGIPSLPPNHLPRKNDLNIIKEIILADTVKPVVITSTKQVTALQGMGGMGKSVLSAAFARSAETRRAFYDGIFWITVGLEASESDASGNMRLIGTNLGDDPVNYSSKKEAEASLSKMLSDKVCLIILDDVWKVPQATPFFNALGSRCRLLITTRNDDVVTSLGAQKHEIKVLGKPEALKLLANWCEQEIDSLTSKAAEVARECGYLPLALSICGAMAKSGISWTYILEALQEADLEFIEAQLPNYPDPNVGRALKVSVDFLSLEDPNAVMRYQELVIFPEDELVPETTIAMLWEHTGNLKRRNVEKLLTKLKDRSLLRLDGEAPNRLISLHDLQLDYLRATVGDLTSLHNKLLAAYGKECGNKWSNGSEDGYFFEHLAYHMKEAGRREELHKLLLDFEWMCKKIKCVRLMQEKDGKGIPDLNSLLHDYEFLSNEPKIELVKEAIQLSFDIIAKDEAQFSGQLIGRLQVFNQNEEIRLLLDQATQWKEEDVRLIPLQPCLKPPGGSLKRTFKAHAHPINDVVITSNGKVAISASTDKTIRIWDLNEWIEKGTLKGHLTPVTAIAVSLDGKYAASCSYHIMCLIGDNNIKVWDLEKREEKTTLKGHTHWVQTVAITPDGKYIVSGSLDKTIKFGI | failed |
| MKSTLIDNFTLLLWASLMASSFVVSEQLLPYANPIASTALRFILATILMMPFIGRASIKQLNYKILLRYSVISLFLVLFFIGLFEALKTTNAMRTSVIYTLLPLISVVLTYIGLKFVTPNKQIAGFLIGTLGAIWVLVAFTQGKLVLIEWRLGDSIFLVACCCLALHVILIKKWATDVPPMLGAFYIMLLGSLILLPFLIFFGDLNNIAWHEDEFWKVLLYLTLFTTIATFFLQQHLLKKVGPNRLLGFTYLIPSIVLIPQGLANMSQLYSVVPGIMLTFLALYLISPKHQ | failed |
| MKSVAGGLLRIGMRHDHDMTNRRLDAVILAGGCAHRLGGVAKANLRVGTRRLLDVVLDAVDGAREGLEGSNVVVARESVEVPWSVIRTMEDPPGSGPLAGIRAGLQALPPAQPDDLVLVCAVDSPGIGRSIRQLREALEDDPLNHFAGAVTFGGVPKPHRQLLQGLYRRVPLEASIAAADTVVNRSVHSVLGGLCLLDLPVEPEACRDLDTPGDVEWWLRHIGD | failed |
| MKSVGQALENQGRVPRNTNDELIQMILADAQVAEFIKTHQLSQREINISMSKFNQFLIERQKFKNKDSQYIAKGYEPILVMNEGYADVSYLETRELIEAQKKQAISDRINLVNLPKSYRNIRMTDFDINNESRMKAMSQLLDFVETYPSYNHKGLYLYGDMGVGKSYLMAAMARELSERKGVSTTLLHFPSFAIDVKNAISSGTVKDEIDAVKSVPILILDDIGAEQATSWVRDEILQVILQHRMLEELPTFFTSNYSFNDLERKWANIKGSDETWQAKRVMERVRYLAIEFHLEGPNRR | failed |
| MKSYLVGGAVRDALLGQPAGDCDWVVVGADPAHMKSLGFKPVGRDFPVFLHPKTGEEFALARTERKNGHGYRGFIVNADPTVTLEQDLQRRDFTINAIARDQTNGTLIDPYGGVNDLEQRVLRHISPAFAEDPLRVLRAARFMARLAPLGFSIAPETLAMMRQMAANGELNSLIPERIWKELSRSLTYTQPAAFLHTLRTVNALEVVLPELNALYGVPQHADYHPEIDTGLHQELVSDIAAKLAPGDMLIGFAALCHDLGKALTPRATWPHHPMHEQRGMAPTQQLSERLKVPRNYQQLALIACREHLNVHRLSKLHDNTVYELLQRCDAFRRPERIAQLAIVCEADYRGRYGHEDANYPQGQHLCRLHAAALAINARDLNRQDLHGTQIGEALAQARIRAISSAGVYDGGTGTNF | failed |
| MKTAWLLLLLLGVGALGGCAVNPATGKSDFVMMSEQQELGMGARYNQEILKQFPRYNDEKLQAYVQRVGERVARSSHRSNLQYHFTVIDSPDINAFALPGGYIYIHRGLIAYLGSEAELAAVLGHEVGHVTARHSVRQQSQASAWNILGQAVAIGTGVGAAGDLANVLGTAFVRGYGRDMELEADGLGAQYLARAGYDPTAMIQVVRVLKNQEDFAREEAARNGQAVQAGGYHGLFDTHPDNDRRLQEVVGPARQLANGQQEVGREVFLRHLEGMPFGDSASAGVRRGQNFYHAELDFTLSYPAGWKILNQPSALLGYPADEQSFIGMKLVPHDSRLTPAEFLRKNAGQRLAQEESLKQAGLNGYTAVVPGNPARRVAVIYQGDRAYLFVGVVKVGSLETQDDRFLSVIRSFRPLRDKERALAQPRRLHLVQVKAGQTLEQLAAGGEGSLSDSVARLRLLNDLYPSGEPRPGDWLKVVR | failed |
| MKTFKKGVILDAKSVGLKALEVLKEVADFDFYEVTPPSQIVERSIEAEIMVLNKVVITQEVLSQLPKLKLICITATGTDNVDIKSAKALGIEVKNVSAYSTESVAQHTLACALSLLGRINDYDRYCKSGEYSQSDLFTHISDIKMGLIKGSQWGVIGLGTIGKRVAKLAQAFGAKVVYYSPKDKKEEYERLSLKDLLATSDIISIHAPLNESTRDLIALKELQSLKDGAILINVGRGGIVNEKDLAEILETKDLYYASDVFVKEPFEKDHAFLNPKIQNKLLLTPHIAWAYSDSLKTLVEKTKENIQDFLASQK | failed |
| MKTGKELKPGTVLRIDNDPWLVQKAEFTKSGRNSAIMKTKLKNLLTGYKTETVYGADDKLDDVILDRKEATLSFINGDEYTFMDTTDYTMYELNAEDIEAVLPYIEEGMEDVCEAVFFEGRLVSVELPTTISRKVVYTENAARGDTSGKVMKPAKLANGTEISVADFIQIDEWIDIDTRDNSFKGRSKKLEHHHHHH | not failed |
| MKTIKDWQINICLATYNGQKYLRQQLDSIIQQGYTDWICLIRDDGSTDDTVAIIKEYVNRDSRFIFINSNDDRKLGSHRSFYELVNYKKADFYVFSDQDDVWKENRLERYLEEAEKFNQELPLLVYSNWTSVDEKLTVLKEHNPATVIQEQIAFNQINGMVIMMNHELAKLWEYRQIGAHDSYVGTLAYAVGNVAYISDSTVLWRRQVGAESLNNYGRQYGVATFWQMINTSFDRASLIFAQVSDKMSLERKLFFSRFIELKNANLMRRIYLLSKLKLRRKSLKETVAMTILLLTGYGKPKALEHHHHHH | not failed |
| MKTITQELKQYMTHLFQLSNNEAWECEALEEAAENILPERFINDSPLVQLTLETYTYYNDELHELSIYPFLMYANNQLISIGYLDHFDMDFLYLTDTQNIIIDERHLLKQGGQDHELEHHHHHH | not failed |
| MKTIVIEDKQRIESIILQADACFVGITDLEGNPYVVPMNFGYENDTLYLHSGPEGGKIEMLQRNNNVCITFSLGHKLVYQHKQVACSYSMRSESAMCRGKVEFIEDMEEKRHALDIIMRHYTKDQFSYSDPAVRNVKVWKVPVDQMTGKVFGLRADEKP | not failed |
| MKTKIAYEEVAGMLNQWYVMIKRHEVSQAVSIKCDIEHQLPNMEENQDLLLYFNLLDYRHKLLTEEFAASNKLFEDIQEQKADMQSTDDMIEYYYFFFAGMYEFHKKDYTNAINYYKLAEEKLRTIPDQIEIAEFHYKLAIAYYQIKQNFLSLNHAKTALKTFKAHDDYIQKAISNDMLIGANKLDLFRFDEAEQHYKQALKDAALIKHHVLLGMAHHNLGLSYVNRNLLTLAEHHFKEALLIKEHEESVYGIHSMFELTHVLYKSNVVKEARKLYEKGFFRAEKAGEREYLSKFKLIHALYDEQDPLTVEHALEYLKTINLWTDVAELTFDIALYYKENGDADKAAEYFEESHHARDQILKRTEELK | failed |
| MKTKQTDELLAKDEQYVWHGMRPFSPNSTMVGAKAEGCWVEDIQGKRYLDGMSGLWCVNSGYGRKELAEAAYKQLQTLSYFPMSQSHEPAIKLAEKLNEWLGGEYVIFFSNSGSEANETAFKIARQYYAQKGEPHRYKFMSRYRGYHGNTMATMAATGQAQRRYQYEPFASGFLHVTPPDCYRMPGIERENIYDVECVKEVDRVMTWELSETIAAFIMEPIITGGGILMPPQDYMKAVHETCQKHGALLISDEVICGFGRTGKAFGFMNYDVKPDIITMAKGITSAYLPLSATAVKREIYEAFKGKGEYEFFRHINTFGGNPAACALALKNLEIIENENLIERSAQMGSLLLEQLKEEIGEHPLVGDIRGKGLLVGIELVNDKETKEPIDNDKIASVVNACKEKGLIIGRNGMTTAGYNNILTLAPPLVISSEEIAFVIGTLKTAMERI | failed |
| MKTLDFRRAGAHIALVVLFAVCPVAFADENDEVAKLYQQGNLDKALEQANAYLALKPKDPQMRFHKGLILTEQQKIPDAIKVFSSLSEDYPNLPEPYNNLAVLYASQGLYEKARGALEAAIRTHPSYSIAHENLGDIYAKLASEAYGKALQLDQGNAAAQTKLAMIKDLFIGKSGAIKTASAATAPAPPASAAPRSPAATTPSPPRSAAPATPPASVHPAPGKAPQKSAEKKTEKAEKSAPGKIAAVETHSPEKKTDVPDESDEIIKTVNAWARAWSDKNVTAYFAFYAADFQTPRGVKRTTWEKTRRDRIIKPKAIQVEITHPKVTLINPARARVSFRQLYHSDAFKHDSSKTLEMVKTDGKWQIRQERSAK | failed |
| MKTLGNILWFIFGGFFGGLSWLFAGVIWCITIIGIPIGLQCFKLAGLSFWPFKKRVVYSDSGVSLVVNIIWLIISGLPLAIGHCISGLFLCLTIIGIPFGQQSFKLAKLALMPFGARVVSTNDFYFE | failed |
| MKTNSEELTVFVQVVESGSFSRAAEQLAMANSAVSRIVKRLEEKLGVNLLNRTTRQLSLTEEGAQYFRRAQRILQEMAAAETEMLAVHEIPQGVLSVDSAMPMVLHLLAPLAAKFNERYPHIRLSLVSSEGYINLIERKVDIALRAGELDDSGLRARHLFDSRFRVIASPEYLAKHGTPQSTEELAGHQCLGFTEPGSLNTWAVLDAQGNPYKISPHFTASSGEILRSLCLSGCGIVCLSDFLVDNDIAEGKLIPLLAEQTSDKTHPFNAVYYSDKAVNLRLRVFLDFLVEELGNNLCG | failed |
| MKTQITTRDLVLEFIHALNTENFPAAKKRLNENFTFNGPMGHREGSERYMNDMEKMKFKYVVHKMFEEGNDVCLIYDINMNGKTIAASGLYHLEKGEITSLHVYFDPRPLFEE | not failed |
| MKTREYYVAAAAGLIGGNVSSFVKWGTEIPFPPRTPDRPIPPLEMLDSLGINANQLTYVYSEHMVNYGSALIHQSFSIFFAIFYCLTALRYPRVAVWQGFGFGMLVTLAFHGVLLPMFHWAPPLWELPPAEWASETFGHLLWIWVIEVIRRDLQQRWSPGPG | failed |
| MKTVILIGALGKMGQAALTGLSKHKVITAGRSGNVDHLVDITNENSIRALYEKVGHFDAVVNTVGFCEYATFAEMTEAQWMTTVMSKMMGQINLVRIGQEYIADKGSFTLISGILNVKPIPCAIADATTSGAIDTFVKCVAYEMQRGTRINVVNPTVLTEAWDVYGDMMPGFEPVPSTLVGKAFERSVDGFINGEVLFVDALEHHHHHH | not failed |
| MKTVLLTGFDPFGGESINPAWEVAKSLHEKTIGEYKIISKQVPTVFHKSISVLKEYIEELAPEFIICIGQAGGRPDITIERVAINIDDARIADNEGNQPVDVPVVEEGPAAYWSTLPMKAIVKKLQEEGIPASVSQTAGTFVCNHLFYGLMHELEKHDTKMKGGFIHIPFLPEQASNYPGQPSMSLSTIRKGIELAVEVTTTVEVDIVEVGGTTH | not failed |
